Measurements from the supplement of paper PMC9170038.

The sequences below were run on K4 kissing-loop RNA reporter (assay: apparent KD of K4 kissing-loop reporter; higher = weaker reporter binding). Settings: Eterna round: R107; input ligand: FMN 200 uM.
Protocol: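 RNA-MaP round R107: designed RNA switches with theophylline, tryptophan, arginine or FMN aptamers are transcribed on-chip within common flanks. They are titrated with a labelled K4 kissing-loop RNA reporter in RNA-MaP buffer (100 mM Tris pH 7.5, 80 mM KCl, 4 mM MgCl2), without ligand or with the indicated ligand. Median apparent KD per design.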
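Further: bound reporter read as fluorescence of individual clusters on recovered sequencing chips by microscopy, with normalized cluster intensities fitted with a binding model.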

Sequence	apparent KD of K4 kissing-loop reporter [nM]
AAUAAAAUCACGGCCGCCACUGAUUACCAUAUUAGGAGUGAUGUUCCUAUGACUAUAUAAUUUAACAGGACCGGGUGAAUAUUUA [JR_ExcTryptoB_Sub011]	105
UGGAGUUGACGAAAAGUCAACUCCUGGGAAGGAGCGGACGAAAGUCCAGGUAGGUCGCCCACUACCAGUGAUGUUGGUACUUCAA	241
CAUGGAGUGAUGCUCCAUGAUCGGGCUUGGCAGGAUAUGGGAUUUUCCAGAAGGGUCGAUCCCAGCGAGUGAUGUUCGCUGGUCU [Exclusion FMN A GF 26]	106
UUAGUGACAAGUCAGAUUCUGACAAUUGAUACCAGAUAGAAUUCUAUCCCUUGGCAGCAGUGAUGUUGUUGCAAAUAGUCACAUU [AK3 Exc Theophylline A]	263
GCAGACACGCAGUGAUGUUGCGAAACGGAAGGAGCGCGUGAAAACGCAGGUAGGUCGCCGACACAUAAAUUAUAAUUUUGUUUGC [Arginine A K4 14]	253
UUUUGGUUCUGAGGAUAUUCGAAGAAAUAUAGUGAUGUUAUAUAAGGAGGAGGAUGGAGGGAGGAAGGAGAAGGCAGAAGAGGAG [ExFMNB.I]	890
AAGCGUGUGGCGGCCGCCACUAGUCUCCAGUGAUGUUGGAGAGAUCACGUAAGUGAUCUCCGACAUAGGACCGGGCCAUAUGGAA [Same State - Tryptophan B (Freestyle 23)]	69.1
UUUUUAAUCGCAGAUACCAGUCCAGAAUGAAUACUAUAGUGAUGUUAUAAUAAAGGGAAGGACCCUUGGCAGCUGUACUAUAUUU [AstrosSsTheB#6]	412
GCAAACCUCAGUGAUGUUGAGAAAUCGGAAGGAGCGCGUGAAAACGCAGGUAGGUCGCCGACACAUGAAGUAUCUUCGUGUUUGC [Arginine A K4 22]	276
CCGGUUCCAACGCUGACUGAAGAACAUGAUACCAGUCGAGGACUCGACCCUUGGCAGCAUUAUAGAGUGAUGUUCGCUUCAGAAA [theeternabot_sameState_KL_Theo_A_15]	157
AGAGUUAUGAGAGGAUAUGCGGCUAGUACUCAAAGAGUACUAGCAGCGGAGUGAUGUUCUGUGAAAGCAGAAGGUUCAUAACUCA [#07 K4 FMN B Same State]	159
CGCGACGUGGUCACGCCAGUCUCGUUAACCAAGGAUAUUGAGAAGACAAGAAGGUGGAUGUACCAUAGUGAUGUUGUGGUCAGUA [theeternabot_sameState_KL_FMN_A_17]	416
AAGUGUGUGGCGGCCGCCACUAGAAUCCAGUGAUGUUGGAGUUAUCAUAUAAUUGAUAAUCAACAUAGGACCGGGCCAUAUAGAA [Same State - Tryptophan B (Freestyle 6)]	602
UUUUAAAUGUCUGAUACCAGAGAAAAUAUAUGUAGUGAUGUUAUAUACAAAUUAAAUAAGCUCCCUUGGCAGCAGUAUUAAUUUU [AstrosExc-TheB#10]	628
CCUUCCGACACGGCCGCCACUAAUUUCAUCAGAUUGCCCGGAUUUCCAAGAUAGUGAUGUUGUACUAGGACCGGGUGUCAGGUCG [theeternabot_exclusion_KL_Trp_B_16]	874
AAGUGUUCUAGUGAUACCAGACAUUUCAAUUACAUUAAUAUAGCUAAGUGAUGUUUAGCAGUCCCUUGGCAGCACUAUUUCACUA [JR_SSTheophyB_Sub016]	130
CACGAUGAAUUCUCUAGGAGUGAUGUUUUUCGAGGACCGGUACGGCCGCCACUCGGACCAGGAACGUGGGAGCGGCGAAAAGACU [jbmullin]	665
AUGAGGUGACUAAAUAAUAAGGGAAUUGAUACCAGACAGAAUUCUGUCCCUUGGCAGCAGUGAUGUUGUUGCAAGUCAGCUCAAA [AK1.1 Exc Theophylline A]	265
UGUCAUUGGUCGGCCGCCACUAGGACCGGGUAUAACCUAGUGAUGUUAGUGAGUACGGCCGCCACUAGGACCGGGACCGAUGACU [KL-SSTryp-B120 #DoubleAptamer]	531
UUCUUGAUGGAAACAUCGAGGAUUACUGAUACCAGUAUCGAUAGAUACCCUUGGCAGCAGUAUCGGUGAUCACGAGUGAUGUUCG [Ex Theophylline A K4 11]	669
CGAUGGAUGGCAGGAUAUAGACAUUGAGUGAUGUUCGAUGAUUAUCCAUAUUCCCGUCACCUAAGACUAGAAGGGCCAUCCAUCG	554
ACCUACGAUCACAAUAGUGAUUGUAGGAACUAGGAUAUGCUGAAAAGCAGAAGGAGUGAUGUUCCGUCAUGAAUAACAUGACAAA [FmnAX 5 #OpenEnded #K4Late #CoaxialStacking]	251
UGAGAUAUGAGGGAUACCAGCCAUAAGGAAAGUGUGAUGAGUGAUGUUCUGACAAGCCAAGGCCCUUGGCAGCUUUAAUAGCAUC [whbob_SS_Theo_B_th77]	328
GUGCGCGCGGCGGCCGCCACUCGCAUGAGAGUGAUGUUCUCGGGACUGACGGAAGUCAGUCAUGGGAGGACCGGGCCGGGCUGCG [#2 Same State - Tryptophan B Attempt #13 (HarryS)]	360
UGGAGUUGACGAAAAGUCAACUCCAGAGAAGGAGCGGACGAAAGUCCAGGUAGGUCGCUCACUACCAGUGAUGUUGGUACUUGAA	220

Same assay, conditions: Eterna round: R107; input ligand: arginine 13.2 mM

Sequence	apparent KD of K4 kissing-loop reporter [nM]
AAAUAUUGUUACCUGUUAACAUAGGGCCAACGAGGACCGGUACGGCCGCCACUCGUCUCAUAGCGAGUGAUGUUCGCACCGCCCA	58.2
UGACUGGACUGAAGGAGCGCAAAACUCCUAGUGAUGUUAGGAAAACGAGACAAAGUCUCGAUGCAGGUAGGUCGCAGUCUAGUCU	146
AGACCACAAAGUGGUCAGUGUUCGCUGCGGCGAGGACCGGUACGGCCGCCACUCGCGAGUGAUGUUCGCGAGCGCAGCGAACACA [Omei KL Tryp A Exc A v3]	88.8
CGAGUGAUGUUCGAAGAGUUGUUAAGCGAUACCAGCCAGGAAACUGGCCCUUGGCAGCGUAAUAAAUAAAUAAAUAAAUGAUCAC [Theophylline A Exclusion; Euphoria Solution]	438
AAUAAAAUCACGGCCGCCACUGAUUACCAUAUUAGGAGUGAUGUUCCUAUGACUAUAUAAUUUAACAGGACCGGGUGAAUAUUUA [JR_ExcTryptoB_Sub011]	103
UGGAGUUGACGAAAAGUCAACUCCUGGGAAGGAGCGGACGAAAGUCCAGGUAGGUCGCCCACUACCAGUGAUGUUGGUACUUCAA	274
CAUGGAGUGAUGCUCCAUGAUCGGGCUUGGCAGGAUAUGGGAUUUUCCAGAAGGGUCGAUCCCAGCGAGUGAUGUUCGCUGGUCU [Exclusion FMN A GF 26]	121
UUAGUGACAAGUCAGAUUCUGACAAUUGAUACCAGAUAGAAUUCUAUCCCUUGGCAGCAGUGAUGUUGUUGCAAAUAGUCACAUU [AK3 Exc Theophylline A]	209
GCAGACACGCAGUGAUGUUGCGAAACGGAAGGAGCGCGUGAAAACGCAGGUAGGUCGCCGACACAUAAAUUAUAAUUUUGUUUGC [Arginine A K4 14]	214
UUUUGGUUCUGAGGAUAUUCGAAGAAAUAUAGUGAUGUUAUAUAAGGAGGAGGAUGGAGGGAGGAAGGAGAAGGCAGAAGAGGAG [ExFMNB.I]	492
AAGCGUGUGGCGGCCGCCACUAGUCUCCAGUGAUGUUGGAGAGAUCACGUAAGUGAUCUCCGACAUAGGACCGGGCCAUAUGGAA [Same State - Tryptophan B (Freestyle 23)]	125
UUUUUAAUCGCAGAUACCAGUCCAGAAUGAAUACUAUAGUGAUGUUAUAAUAAAGGGAAGGACCCUUGGCAGCUGUACUAUAUUU [AstrosSsTheB#6]	308
GCAAACCUCAGUGAUGUUGAGAAAUCGGAAGGAGCGCGUGAAAACGCAGGUAGGUCGCCGACACAUGAAGUAUCUUCGUGUUUGC [Arginine A K4 22]	272
CCGGUUCCAACGCUGACUGAAGAACAUGAUACCAGUCGAGGACUCGACCCUUGGCAGCAUUAUAGAGUGAUGUUCGCUUCAGAAA [theeternabot_sameState_KL_Theo_A_15]	140
AGAGUUAUGAGAGGAUAUGCGGCUAGUACUCAAAGAGUACUAGCAGCGGAGUGAUGUUCUGUGAAAGCAGAAGGUUCAUAACUCA [#07 K4 FMN B Same State]	1350
CGCGACGUGGUCACGCCAGUCUCGUUAACCAAGGAUAUUGAGAAGACAAGAAGGUGGAUGUACCAUAGUGAUGUUGUGGUCAGUA [theeternabot_sameState_KL_FMN_A_17]	356
AAGUGUGUGGCGGCCGCCACUAGAAUCCAGUGAUGUUGGAGUUAUCAUAUAAUUGAUAAUCAACAUAGGACCGGGCCAUAUAGAA [Same State - Tryptophan B (Freestyle 6)]	441
UUUUAAAUGUCUGAUACCAGAGAAAAUAUAUGUAGUGAUGUUAUAUACAAAUUAAAUAAGCUCCCUUGGCAGCAGUAUUAAUUUU [AstrosExc-TheB#10]	694
CCUUCCGACACGGCCGCCACUAAUUUCAUCAGAUUGCCCGGAUUUCCAAGAUAGUGAUGUUGUACUAGGACCGGGUGUCAGGUCG [theeternabot_exclusion_KL_Trp_B_16]	680
AAGUGUUCUAGUGAUACCAGACAUUUCAAUUACAUUAAUAUAGCUAAGUGAUGUUUAGCAGUCCCUUGGCAGCACUAUUUCACUA [JR_SSTheophyB_Sub016]	144
CACGAUGAAUUCUCUAGGAGUGAUGUUUUUCGAGGACCGGUACGGCCGCCACUCGGACCAGGAACGUGGGAGCGGCGAAAAGACU [jbmullin]	312
AUGAGGUGACUAAAUAAUAAGGGAAUUGAUACCAGACAGAAUUCUGUCCCUUGGCAGCAGUGAUGUUGUUGCAAGUCAGCUCAAA [AK1.1 Exc Theophylline A]	186
